Experimental data from article doi:10.1101/2024.12.23.630133 (bioRxiv, 2024).

Target: the molecule itself
Assay: single-molecule GFP photobleaching

B1: HCN1SM (GFP-tagged human HCN1 channel) (natural protein)
chain: MEGGGKPNSSSNSRDDGNSVFPAKASATGAGPAAAEKRLGTPPGGGGAGAKEHGNSVCFKVDGGGGGGGGGGGGEEPAGGFEDAEGPRRQYGFMQRQFTSMLQPGVNKFSLRMFGSQKAVEKEQERVKTAGFWIIHPYSDFRFYWDLIMLIMMVGNLVIIPVGITFFTEQTTTPWIIFNVASDTVFLLDLIMNFRTGTVNEDSSEIILDPKVIKMNYLKSWFVVDFISSIPVDYIFLIVEKGMDSEVYKTARALRIVRFTKILSLLRLLRLSRLIRYIHQWEEIFHMTYDLASAVVRIFNLIGMMLLLCHWDGCLQFLVPLLQDFPPDCWVSLNEMVNDSWGKQYSYALFKAMSHMLCIGYGAQAPVSMSDLWITMLSMIVGATCYAMFVGHATALIQSLDSSRRQYQEKYKQVEQYMSFHKLPADMRQKIHDYYEHRYQGKIFDEENILNELNDPLREEIVNFNCRKLVATMPLFANADPNFVTAMLSKLRFEVFQPGDYIIREGAVGKKMYFIQHGVAGVITKSSKEMKLTDGSYFGEICLLTKGRRTASVRADTYCRLYSLSVDNFNEVLEEYPMMRRAFETVAIDRLDRIGKKNSILLQKFQKDLNTGVFNNQENEILKQIVKHDREMVQAIAPINYPQMTTLNSTSSTTTPTSRMRTQSPPVYTATSLSHSNLHSPSPSTQTPQPSAILSPCSYTTAVCSPPVQSPLAARTFHYASPTASQLSLMQQQPQQQVQQSQPPQTQPQQPSPQPQTPGSSTPKNEVHKSTQALHNTNLTREVRPLSASQPSLPHEVSTLISRPHPTVGESLASIPQPVTAVPGTGLQAGGRSTVPQRVTLFRQMSSGAIPPNRGVPPAPPPPAAALPRESSSVLNTDPDAEKPRFASNL
stoichiometry N: 4
